Assay results: US20140072613A1, “Compositions and Methods for Treating Cutaneous Scarring” (priority 2012, published 2014)

How the values were obtained:
Assay in all cases: cell-based or functional assay
Abl(H8396P)(h) (human) = Abl(H8396P)(h) (human) (UniProt P00519)
Abl(Y253F)(h) (human) = Abl(Y253F)(h) (human) (UniProt P00519)
CHK1(h) (human) = biological target: T1, CHK1(h) (human) (UniProt O14757)
T1 sequence (looked up): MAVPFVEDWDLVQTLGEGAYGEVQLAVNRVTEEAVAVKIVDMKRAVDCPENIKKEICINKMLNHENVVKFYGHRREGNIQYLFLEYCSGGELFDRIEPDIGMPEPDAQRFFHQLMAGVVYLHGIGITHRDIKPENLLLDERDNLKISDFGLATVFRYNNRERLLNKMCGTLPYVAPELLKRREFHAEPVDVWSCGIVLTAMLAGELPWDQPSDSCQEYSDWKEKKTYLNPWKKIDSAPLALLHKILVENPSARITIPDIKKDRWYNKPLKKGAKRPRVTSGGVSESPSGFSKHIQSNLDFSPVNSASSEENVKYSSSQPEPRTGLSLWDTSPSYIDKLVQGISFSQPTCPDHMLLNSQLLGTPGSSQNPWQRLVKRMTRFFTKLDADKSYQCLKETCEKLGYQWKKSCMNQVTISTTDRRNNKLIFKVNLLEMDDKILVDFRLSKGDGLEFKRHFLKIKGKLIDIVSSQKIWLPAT

DAPK1(h) (human) = DAPK1(h) (human) (UniProt P53355)
DAPK1(h) (human), sequence (P53355 1-363 limits assumed): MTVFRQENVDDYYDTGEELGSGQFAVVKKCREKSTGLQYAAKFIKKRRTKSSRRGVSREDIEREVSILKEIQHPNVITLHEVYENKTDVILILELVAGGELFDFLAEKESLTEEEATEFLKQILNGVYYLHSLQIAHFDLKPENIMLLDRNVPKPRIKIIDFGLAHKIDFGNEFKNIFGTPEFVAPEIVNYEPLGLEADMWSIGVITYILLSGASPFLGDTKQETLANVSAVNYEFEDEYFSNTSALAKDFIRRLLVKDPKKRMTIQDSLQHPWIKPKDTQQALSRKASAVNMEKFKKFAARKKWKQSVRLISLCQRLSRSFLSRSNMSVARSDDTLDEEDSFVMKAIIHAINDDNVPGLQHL

EGFR(L861Q)(h) (human) = EGFR(L861Q)(h) (human) (UniProt P00533)
EGFR(h) (human) = EGFR(h) (human) (UniProt P00533)
EphA7(h) (human) = EphA7(h) (human) (UniProt Q15375)
EphA7(h) (human), sequence (Q15375 577-998 limits assumed): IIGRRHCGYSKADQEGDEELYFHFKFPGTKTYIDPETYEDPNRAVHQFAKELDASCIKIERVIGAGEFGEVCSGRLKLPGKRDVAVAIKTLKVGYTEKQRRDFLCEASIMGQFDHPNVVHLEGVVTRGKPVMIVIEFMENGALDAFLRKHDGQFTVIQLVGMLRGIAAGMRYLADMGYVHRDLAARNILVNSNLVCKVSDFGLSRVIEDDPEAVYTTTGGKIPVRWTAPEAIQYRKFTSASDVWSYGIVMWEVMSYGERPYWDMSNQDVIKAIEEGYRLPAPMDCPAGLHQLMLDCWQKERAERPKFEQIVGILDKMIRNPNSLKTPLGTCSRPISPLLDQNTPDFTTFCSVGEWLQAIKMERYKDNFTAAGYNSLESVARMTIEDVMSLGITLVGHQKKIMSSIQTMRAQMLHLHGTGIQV

EphB4(h) (human) = EphB4(h) (human) (UniProt P54760)
EphB4(h) (human), sequence (P54760 561-987 limits assumed): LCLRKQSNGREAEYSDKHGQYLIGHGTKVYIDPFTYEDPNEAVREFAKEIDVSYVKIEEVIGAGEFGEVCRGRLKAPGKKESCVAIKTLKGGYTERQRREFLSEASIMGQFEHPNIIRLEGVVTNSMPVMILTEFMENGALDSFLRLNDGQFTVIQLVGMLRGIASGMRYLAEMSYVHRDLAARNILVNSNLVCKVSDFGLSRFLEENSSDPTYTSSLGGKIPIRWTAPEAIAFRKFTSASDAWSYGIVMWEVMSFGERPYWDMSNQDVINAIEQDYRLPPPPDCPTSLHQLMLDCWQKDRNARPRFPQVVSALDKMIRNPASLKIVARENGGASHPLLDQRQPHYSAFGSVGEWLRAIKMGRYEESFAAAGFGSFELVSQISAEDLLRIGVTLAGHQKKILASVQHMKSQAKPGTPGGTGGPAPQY

Flt3(h) (human) = biological target: T2, Flt3(h) (human) (UniProt P36888)
T2 sequence (looked up): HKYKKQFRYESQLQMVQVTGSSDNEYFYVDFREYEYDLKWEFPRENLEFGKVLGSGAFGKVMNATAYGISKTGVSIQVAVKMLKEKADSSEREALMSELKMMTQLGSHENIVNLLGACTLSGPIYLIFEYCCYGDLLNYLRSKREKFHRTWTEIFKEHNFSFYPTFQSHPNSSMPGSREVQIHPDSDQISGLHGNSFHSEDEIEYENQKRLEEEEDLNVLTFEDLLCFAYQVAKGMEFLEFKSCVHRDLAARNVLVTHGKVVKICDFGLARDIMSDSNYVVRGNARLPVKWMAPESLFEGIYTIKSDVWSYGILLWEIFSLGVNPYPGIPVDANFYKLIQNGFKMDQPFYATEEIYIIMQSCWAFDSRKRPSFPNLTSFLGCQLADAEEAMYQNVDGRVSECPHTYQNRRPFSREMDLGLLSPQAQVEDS

GSK3α(h) (human) = GSK3α(h) (human) (UniProt P49840)
GSK3α(h) (human), sequence (P49840 whole entry): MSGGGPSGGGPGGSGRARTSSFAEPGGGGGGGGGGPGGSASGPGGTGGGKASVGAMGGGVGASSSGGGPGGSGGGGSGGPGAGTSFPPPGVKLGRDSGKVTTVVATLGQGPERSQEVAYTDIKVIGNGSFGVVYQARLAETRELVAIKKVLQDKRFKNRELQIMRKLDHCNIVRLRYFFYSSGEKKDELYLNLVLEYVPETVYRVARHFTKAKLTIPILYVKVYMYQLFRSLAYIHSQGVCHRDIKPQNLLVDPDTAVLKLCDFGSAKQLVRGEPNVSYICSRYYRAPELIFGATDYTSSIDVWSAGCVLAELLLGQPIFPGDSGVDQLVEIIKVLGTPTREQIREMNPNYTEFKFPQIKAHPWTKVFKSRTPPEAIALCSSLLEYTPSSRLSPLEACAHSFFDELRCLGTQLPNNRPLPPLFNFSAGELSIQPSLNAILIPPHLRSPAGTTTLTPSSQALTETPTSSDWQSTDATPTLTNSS

IRR(h) (human) = IRR(h) (human) (UniProt P14616)
IRR(h) (human), sequence (P14616 960-1297 limits assumed): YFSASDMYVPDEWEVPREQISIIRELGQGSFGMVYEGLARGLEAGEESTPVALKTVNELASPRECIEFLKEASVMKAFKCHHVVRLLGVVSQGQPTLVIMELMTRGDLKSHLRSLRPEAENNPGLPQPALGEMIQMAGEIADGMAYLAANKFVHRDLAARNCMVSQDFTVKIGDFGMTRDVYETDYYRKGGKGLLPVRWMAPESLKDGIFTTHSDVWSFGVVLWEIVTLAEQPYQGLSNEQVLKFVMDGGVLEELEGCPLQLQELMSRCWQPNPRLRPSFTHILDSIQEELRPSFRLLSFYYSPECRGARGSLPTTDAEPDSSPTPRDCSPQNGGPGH

MELK(h) (human) = MELK(h) (human) (UniProt Q14680)
MELK(h) (human), sequence (Q14680 1-340 limits assumed): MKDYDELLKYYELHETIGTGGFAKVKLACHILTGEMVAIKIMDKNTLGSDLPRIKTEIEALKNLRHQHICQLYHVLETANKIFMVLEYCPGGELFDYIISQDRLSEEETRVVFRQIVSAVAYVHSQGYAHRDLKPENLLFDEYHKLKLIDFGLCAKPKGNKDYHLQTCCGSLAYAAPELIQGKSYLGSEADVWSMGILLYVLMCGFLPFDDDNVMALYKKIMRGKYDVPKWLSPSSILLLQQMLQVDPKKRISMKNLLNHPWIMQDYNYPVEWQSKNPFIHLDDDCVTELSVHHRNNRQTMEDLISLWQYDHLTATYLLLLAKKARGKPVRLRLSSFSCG

MKK6(h) (human) = MKK6(h) (human) (UniProt P52564)
MKK6(h) (human), sequence (P52564 whole entry): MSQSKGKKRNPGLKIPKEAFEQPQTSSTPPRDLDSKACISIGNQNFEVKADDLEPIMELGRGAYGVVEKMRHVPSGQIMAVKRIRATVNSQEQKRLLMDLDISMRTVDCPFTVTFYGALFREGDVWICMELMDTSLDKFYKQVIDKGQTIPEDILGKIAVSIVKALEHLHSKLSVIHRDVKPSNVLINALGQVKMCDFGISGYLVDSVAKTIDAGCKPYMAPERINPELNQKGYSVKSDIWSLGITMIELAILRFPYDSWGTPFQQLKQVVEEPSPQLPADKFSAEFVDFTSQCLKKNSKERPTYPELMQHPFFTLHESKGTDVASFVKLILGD

MST2(h) (human) = biological target: T3, MST2(h) (human) (UniProt Q13188)
T3 sequence (looked up): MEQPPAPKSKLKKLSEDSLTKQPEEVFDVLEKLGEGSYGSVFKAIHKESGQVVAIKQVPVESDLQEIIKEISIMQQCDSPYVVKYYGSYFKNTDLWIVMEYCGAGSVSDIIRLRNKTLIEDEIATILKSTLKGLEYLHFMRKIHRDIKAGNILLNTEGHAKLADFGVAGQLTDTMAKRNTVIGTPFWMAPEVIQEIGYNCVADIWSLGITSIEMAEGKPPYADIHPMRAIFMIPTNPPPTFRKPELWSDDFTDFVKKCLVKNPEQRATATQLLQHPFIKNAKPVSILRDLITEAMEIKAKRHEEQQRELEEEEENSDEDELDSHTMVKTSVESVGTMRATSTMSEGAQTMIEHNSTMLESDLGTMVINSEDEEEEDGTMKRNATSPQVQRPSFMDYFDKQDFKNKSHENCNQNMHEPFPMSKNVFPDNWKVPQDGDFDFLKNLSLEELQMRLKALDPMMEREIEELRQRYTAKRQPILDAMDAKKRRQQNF

MST3(h) (human) = MST3(h) (human) (UniProt Q9Y6E0)
Met(Y1248H)(h) (human) = Met(Y1248H)(h) (human) (UniProt P08581)
MuSK(h) (human) = MuSK(h) (human) (UniProt O15146)
MuSK(h) (human), sequence (O15146 517-869 limits assumed): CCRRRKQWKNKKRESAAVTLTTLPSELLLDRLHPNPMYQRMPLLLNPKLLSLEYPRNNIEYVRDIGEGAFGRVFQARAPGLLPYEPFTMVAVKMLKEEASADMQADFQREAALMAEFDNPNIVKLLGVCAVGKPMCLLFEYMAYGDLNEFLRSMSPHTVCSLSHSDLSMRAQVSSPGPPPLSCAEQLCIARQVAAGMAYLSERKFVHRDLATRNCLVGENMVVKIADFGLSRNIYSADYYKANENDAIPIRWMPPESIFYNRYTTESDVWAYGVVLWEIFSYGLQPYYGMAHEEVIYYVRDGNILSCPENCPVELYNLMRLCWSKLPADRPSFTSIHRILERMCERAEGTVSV

PKBγ(h) (human) = PKBγ(h) (human) (UniProt Q9Y243)
PKBγ(h) (human), sequence (Q9Y243 whole entry): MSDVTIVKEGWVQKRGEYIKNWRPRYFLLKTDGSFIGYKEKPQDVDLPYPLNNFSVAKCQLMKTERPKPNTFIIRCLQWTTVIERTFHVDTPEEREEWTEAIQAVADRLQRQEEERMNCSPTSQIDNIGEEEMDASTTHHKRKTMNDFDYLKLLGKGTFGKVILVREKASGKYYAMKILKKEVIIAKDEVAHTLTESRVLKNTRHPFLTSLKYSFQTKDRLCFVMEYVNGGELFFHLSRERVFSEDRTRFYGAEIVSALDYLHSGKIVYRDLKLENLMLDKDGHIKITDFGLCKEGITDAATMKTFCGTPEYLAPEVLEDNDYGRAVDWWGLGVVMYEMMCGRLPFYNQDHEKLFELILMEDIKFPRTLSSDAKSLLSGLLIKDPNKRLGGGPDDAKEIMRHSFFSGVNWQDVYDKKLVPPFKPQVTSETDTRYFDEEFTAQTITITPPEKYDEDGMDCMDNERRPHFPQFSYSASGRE

PKG1α(h) (human) = PKG1α(h) (human) (UniProt Q13976)
Pim-2(h) (human) = Pim-2(h) (human) (UniProt Q9P1W9)
Ret(V804L)(h) (human) = biological target: T4, Ret(V804L)(h) (human) (UniProt P07949)
T4 sequence (looked up): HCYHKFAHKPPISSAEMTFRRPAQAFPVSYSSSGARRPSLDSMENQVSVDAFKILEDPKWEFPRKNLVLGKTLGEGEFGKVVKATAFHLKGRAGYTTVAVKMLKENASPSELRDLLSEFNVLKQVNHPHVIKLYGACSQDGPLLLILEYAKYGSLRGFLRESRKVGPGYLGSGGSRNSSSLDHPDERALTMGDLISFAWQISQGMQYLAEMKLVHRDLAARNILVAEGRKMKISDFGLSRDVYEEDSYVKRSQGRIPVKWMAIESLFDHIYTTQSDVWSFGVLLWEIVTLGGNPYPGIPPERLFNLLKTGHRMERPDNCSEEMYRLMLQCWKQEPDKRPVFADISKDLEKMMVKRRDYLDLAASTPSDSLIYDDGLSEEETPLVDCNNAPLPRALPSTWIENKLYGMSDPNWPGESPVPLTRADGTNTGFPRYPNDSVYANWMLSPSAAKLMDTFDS

Snk(h) (human) = Snk(h) (human) (UniProt Q9NYY3)
Snk(h) (human), sequence (Q9NYY3 whole entry): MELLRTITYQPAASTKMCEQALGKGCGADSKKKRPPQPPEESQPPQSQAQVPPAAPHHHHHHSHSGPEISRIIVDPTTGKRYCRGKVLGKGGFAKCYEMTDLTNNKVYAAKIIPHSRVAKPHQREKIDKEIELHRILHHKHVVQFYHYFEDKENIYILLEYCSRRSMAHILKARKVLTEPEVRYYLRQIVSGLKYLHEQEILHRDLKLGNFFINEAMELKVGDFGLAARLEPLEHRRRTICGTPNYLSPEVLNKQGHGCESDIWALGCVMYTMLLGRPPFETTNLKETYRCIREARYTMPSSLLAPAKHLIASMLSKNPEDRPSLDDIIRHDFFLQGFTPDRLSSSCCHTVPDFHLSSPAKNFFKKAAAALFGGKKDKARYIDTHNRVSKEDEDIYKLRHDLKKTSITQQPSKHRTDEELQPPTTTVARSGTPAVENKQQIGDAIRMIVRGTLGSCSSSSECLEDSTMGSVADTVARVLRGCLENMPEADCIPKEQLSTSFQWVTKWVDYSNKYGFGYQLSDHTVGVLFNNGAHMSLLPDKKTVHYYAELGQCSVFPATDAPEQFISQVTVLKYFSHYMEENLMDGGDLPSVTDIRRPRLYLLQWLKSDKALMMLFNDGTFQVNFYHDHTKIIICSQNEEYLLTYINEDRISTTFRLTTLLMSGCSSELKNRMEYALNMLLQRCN

Src(1-530)(h) (human) = Src(1-530)(h) (human) (UniProt P12931)
WNK3(h) (human) = WNK3(h) (human) (UniProt Q9BYP7)
WNK3(h) (human), sequence (Q9BYP7 1-434 limits assumed): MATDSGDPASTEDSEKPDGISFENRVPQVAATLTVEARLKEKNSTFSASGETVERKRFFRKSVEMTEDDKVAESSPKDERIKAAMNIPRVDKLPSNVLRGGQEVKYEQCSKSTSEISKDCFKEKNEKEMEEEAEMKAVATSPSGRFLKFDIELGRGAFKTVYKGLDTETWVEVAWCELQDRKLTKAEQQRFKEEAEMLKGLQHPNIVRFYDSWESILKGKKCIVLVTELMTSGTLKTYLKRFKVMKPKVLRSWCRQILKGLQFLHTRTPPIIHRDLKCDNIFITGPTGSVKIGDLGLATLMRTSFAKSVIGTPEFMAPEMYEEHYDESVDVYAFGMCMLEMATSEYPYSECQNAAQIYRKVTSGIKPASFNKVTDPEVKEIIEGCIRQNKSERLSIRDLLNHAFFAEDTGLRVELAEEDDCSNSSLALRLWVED

mTOR/FKBP12(h) (human) = mTOR/FKBP12(h) (human) (UniProt P42345)

MMI-0500 (peptide)
% activity, 100 µM (Abl(H8396P)(h) (human)): 51%
% activity, 100 µM (Abl(Y253F)(h) (human)): 29%
% activity, 100 µM (CHK1(h) (human)): 65%
% activity, 100 µM (DAPK1(h) (human)): 0%
% activity, 100 µM (EGFR(L861Q)(h) (human)): 15%
% activity, 100 µM (EGFR(h) (human)): -1%
% activity, 100 µM (EphA7(h) (human)): 189%
% activity, 100 µM (EphB4(h) (human)): 38%
% activity, 100 µM (Flt3(h) (human)): 17%
% activity, 100 µM (GSK3α(h) (human)): 175%
% activity, 100 µM (IRR(h) (human)): 10%
% activity, 100 µM (MELK(h) (human)): 0%
% activity, 100 µM (MKK6(h) (human)): 18%
% activity, 100 µM (MST2(h) (human)): 2%
% activity, 100 µM (MST3(h) (human)): 4%
% activity, 100 µM (Met(Y1248H)(h) (human)): 126%
% activity, 100 µM (MuSK(h) (human)): 27%
% activity, 100 µM (PKBγ(h) (human)): 20%
% activity, 100 µM (PKG1α(h) (human)): 25%
% activity, 100 µM (Pim-2(h) (human)): 46%
% activity, 100 µM (Ret(V804L)(h) (human)): 20%
% activity, 100 µM (Snk(h) (human)): 122%
% activity, 100 µM (Src(1-530)(h) (human)): 21%
% activity, 100 µM (WNK3(h) (human)): 9%
% activity, 100 µM (mTOR/FKBP12(h) (human)): 140%
